We go through seven molecules from patent publication US20250346679A1 (INVOX PHARMA, published 2025).

Usually Kd stands for the free concentration of one partner at which half of the binding sites on the other are occupied at equilibrium, for simple one-to-one binding.

T1: human OX40 (human, UniProt P43489 29-216)
T1 sequence (looked up): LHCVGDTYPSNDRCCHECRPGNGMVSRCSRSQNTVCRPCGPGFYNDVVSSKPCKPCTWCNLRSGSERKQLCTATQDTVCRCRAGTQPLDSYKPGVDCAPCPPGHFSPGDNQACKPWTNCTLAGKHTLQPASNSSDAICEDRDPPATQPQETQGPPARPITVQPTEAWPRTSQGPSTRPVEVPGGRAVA

T2: human GITR (human, UniProt Q9Y5U5 26-161, limits assumed)
T2 sequence (looked up): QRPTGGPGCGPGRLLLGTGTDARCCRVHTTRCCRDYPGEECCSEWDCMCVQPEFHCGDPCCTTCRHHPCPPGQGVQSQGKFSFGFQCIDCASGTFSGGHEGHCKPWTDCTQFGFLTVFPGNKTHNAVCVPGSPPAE

T3: cCD137-mFc-Avi (cynomolgus; mouse)
T3 construct: also called cynomolgus CD137-mFc-Avi; Cyno CD137-mFc-Avi; not shown: mouse IgG2a Fc domain (mIgG2a Fc)
T3 chain: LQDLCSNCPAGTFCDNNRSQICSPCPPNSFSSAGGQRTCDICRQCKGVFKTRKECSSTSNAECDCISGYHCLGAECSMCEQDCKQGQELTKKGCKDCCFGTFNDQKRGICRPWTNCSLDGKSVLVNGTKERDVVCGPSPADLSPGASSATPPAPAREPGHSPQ

B1: FS22-053-008/HeID1.3 (bispecific antibody, human IgG1, kappa)
heavy: QVQLQESGPGLVRPSQTLSLTCTVSGSTFSGYGVNWVRQPPGRGLEWIGMIWGDGNTDYNSALKSRVTMLVDTSKNQFSLRLSSVTAADTAVYYCARERDYRLDYWGQGSLVTVSSASTKGPSVFPLAPSSKSTSGGTAALGCLVKDYFPEPVTVSWNSGALTSGVHTFPAVLQSSGLYSLSSVVTVPSSSLGTQTYICNVNHKPSNTKVDKKVEPKSCDKTHTCPPCPAPELLGGPSVFLFPPKPKDTLMISRTPEVTCVVVDVSHEDPEVKFNWYVDGVEVHNAKTKPREEQYNSTYRVVSVLTVLHQDWLNGKEYKCKVSNKALPAPIEKTISKAKGQPREPQVYTLPPSRDELNPPYLFSNQVSLTCLVKGFYPSDIAVEWESNGQPENNYKTTPPVLDSDGSFFLYSKLTVDYWRWLEGNVFSCSVMHEALHNHYTQKSLSLSPG
light: DIQMTQSPASLSASVGETVTITCRASGNIHNYLAWYQQKQGKSPQLLVYNAKTLADGVPSRFSGSGSGTQYSLKINSLQPEDFGSYYCQHFWSTPRTFGGGTKLEIKRTVAAPSVFIFPPSDEQLKSGTASVVCLLNNFYPREAKVQWKVDNALQSGNSQESVTEQDSKDSTYSLSSTLTLSKADYEKHKVYACEVTHQGLSSPVTKSFNRGEC
notes: mock mAb^2; also called FS22-053-008 (mock mAb^2 format)
B2: FS22-172-003/HeID1.3 (bispecific antibody, human IgG1, kappa)
heavy: B1 heavy with N358P, P359Y, P360I, Y361I, L362P, F363P, S364Y, D417G, Y418A, W419D
light: B1 light
notes: mock mAb^2 without LALA
B3: FS22-053-011/HeID1.3 (bispecific antibody, human IgG1, kappa)
heavy: B1 heavy with L422T, E423D
light: B1 light
notes: mock mAb^2; also called FS22-053-011 (mock mAb^2 format)
B4: FS22-172-004/HeID1.3 (bispecific antibody, human IgG1, kappa)
heavy: B1 heavy with P359Y, P360I, L362P, F363P, S364Y, D417G, Y418A, W419D
light: B1 light
notes: mock mAb^2
B5: G1-AA/lam-G02v3 (antibody, human IgG1, L234A L235A, V domains shown)
VH: EVQLVQSGAEVKRPGASVKVSCKASGYTFTSYGISWVRQAPGQGLEWMGWISAYSGGTNYAQKLQGRVTMTTDTSTSTAYMELRSLRSDDTAVYYCARDLFPTIFGVSYYYYWGQGTLVTVSS
VL: QSALTQPASVSGSPGQSITISCTGTSSDVGGYNYVSWYQQFPGKAPKLMIFEVTNRPSGVSDRFSGSKSDNTASLTISGLQAEDEAEYYCSSFKRGSTLVVFG
notes: anti-PD-L1 IgG1 with LALA, lambda light chain; also called G1-AA/lambdav3; G1-AA/Iam-G02v3
B6: G1-AA/E05v2 (antibody, human IgG1, kappa, L234A L235A, V domains shown)
VH: B5 VH
VL: DIQMTQSPSTLSASVGDRVTITCRASQSISGRLAWYQQKPGKAPNLLIYEASNLESGVPSRFSGSGSGTEFTLTISSLQPEDFATYYCQQSYSTPRVTFGQGTKVEIKR
notes: anti-PD-L1 IgG1 with LALA
B7: G1-AA/G12v2 (antibody, human IgG1, kappa, L234A L235A, V domains shown)
VH: B5 VH
VL: DIQMTQSPSTLSASVGDRVTITCRASQSISGRLAWYQQKPGKAPNLLIYEASNLESGVPSRFSGSGSGTEFTLTISSLQPEDFATYYCQQSYSWPRTFGQGTKVEIKR
notes: anti-PD-L1 IgG1 with LALA

Residue numbers refer to the chain shown, from its start.

human CD40, sequence (P25942 21-193 limits assumed): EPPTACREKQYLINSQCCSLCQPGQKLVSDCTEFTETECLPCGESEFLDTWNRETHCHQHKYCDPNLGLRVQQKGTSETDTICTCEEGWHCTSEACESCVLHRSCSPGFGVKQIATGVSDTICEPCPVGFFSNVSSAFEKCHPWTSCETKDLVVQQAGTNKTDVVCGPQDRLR
T6 sequence (Q07011 24-186): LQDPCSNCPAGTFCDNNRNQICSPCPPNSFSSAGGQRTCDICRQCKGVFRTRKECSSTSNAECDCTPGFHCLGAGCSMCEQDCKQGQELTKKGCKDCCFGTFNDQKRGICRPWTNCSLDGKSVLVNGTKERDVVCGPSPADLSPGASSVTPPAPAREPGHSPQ
T4 sequence (Q9NZQ7 19-238): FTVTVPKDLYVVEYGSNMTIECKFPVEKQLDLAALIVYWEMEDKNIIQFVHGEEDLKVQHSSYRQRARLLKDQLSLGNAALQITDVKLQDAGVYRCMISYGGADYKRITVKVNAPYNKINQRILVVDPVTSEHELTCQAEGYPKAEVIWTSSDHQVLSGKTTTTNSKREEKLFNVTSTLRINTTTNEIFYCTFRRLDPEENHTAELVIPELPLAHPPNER

The first test deals with human CD137, cell-surface (human, UniProt Q07011 24-255). The experiment in a line: cell-based or functional assay.
human CD137, cell-surface, sequence (Q07011 24-255): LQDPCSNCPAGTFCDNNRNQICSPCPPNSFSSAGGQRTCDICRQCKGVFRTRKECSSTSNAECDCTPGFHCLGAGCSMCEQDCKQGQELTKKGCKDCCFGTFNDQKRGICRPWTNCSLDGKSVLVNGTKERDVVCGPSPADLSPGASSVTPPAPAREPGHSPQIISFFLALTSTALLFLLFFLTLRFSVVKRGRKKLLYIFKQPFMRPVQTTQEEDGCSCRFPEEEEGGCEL
For B1, the “EC50, NF-κB luciferase assay, crosslinked with Protein L (+XL)” value stood at 26.3 nM.

Consider B2, for which the “EC50, NF-κB luciferase assay, crosslinked with Protein L (+XL)” value turned out to be 32.6 nM.

The next test addresses human CD40 (human, UniProt P25942 21-193, limits assumed). The experiment in a line: SPR, receptor amine-coupled to CM5 (~1000 RU). Here is the method: (§1) The specificity of the anti-human CD137 Fcabs for human CD137 compared to other related TNFSFR family members was tested. 8 of the Fcabs were tested in mock mAb² (HeID1.3) format and measured by SPR in a Biacore T200 (GE Healthcare) by testing for binding to other human TNFRSF receptors: CD40, OX40 and GITR. Amine coupling (amine coupling kit, GE Healthcare, BR-1000-50) was used to coat human CD40, GITR and OX40 to approximately 1000 RU in Biacore CM5 chips (GE Healthcare, cat no 29149603). […] The chip was regenerated by injection of 10 mM glycine pH 2.5 for 12 s at 30 μl/min. Antibodies specific to the different TNFRSF members were used as positive controls to verify Biacore chip coating. Data was double reference subtracted and analysed using BIAevaluation 3.2 software.
For orientation: SPR reads the build-up and loss of mass on a sensor chip optically.
B1: the binding result is “no binding (tested: 1 µM)”.

In the case of B3, the binding result is “no binding (tested: 1 µM)”.

Regarding B2, the binding result was “no binding (tested: 1 µM)”.

On to B4, for which the binding result is listed as “no binding (tested: 1 µM)”.

For a further test, the target named is T1, human OX40. As to the kind of experiment: SPR, receptor amine-coupled to CM5 (~1000 RU). As to the method:
as §1
For the molecule B1, the binding result is listed as “no binding (tested: 1 µM)”.

For the molecule B3, the binding result is given as “no binding (tested: 1 µM)”.

For B2, the binding result is recorded as “no binding (tested: 1 µM)”.

As for B4, the binding result is “no binding (tested: 1 µM)”.

The target of another test is T2, human GITR. As to the kind of experiment: SPR, receptor amine-coupled to CM5 (~1000 RU). Here is the method:
as §1
As for B1, the binding result was “no binding (tested: 1 µM)”.

Regarding B3, the binding result is listed as “no binding (tested: 1 µM)”.

For the molecule B2, the binding result was “no binding (tested: 1 µM)”.

Consider B4, for which the binding result is reported as “no binding (tested: 1 µM)”.

The next test concerns the target T4, biotinylated hPD-L1-Avi-His (Acro Biosystems, PD1-H82E5) (human, UniProt Q9NZQ7 19-238, biotinylated).
T4 construct: bought; also called Human PD-L1-His; not shown: Avi and His tags of the bought product
The experiment in a line: SPR, antibody captured on Protein A chip, antigen in flow.
For the molecule B5, the equilibrium dissociation constant (Kd) is 1.34 nM.

B6 came in with a Kd of 0.5 nM.

Consider B7, for which the affinity, expressed as Kd, was 0.44 nM.

For a further test, the target named is T5, cPD-L1-His (Acro Biosystems, PD1-C52H4) (cynomolgus, UniProt Q9NZQ7 19-238 (human entry)).
T5 construct: bought; also called Cyno PD-L1-His; Cynomolgus PD-L1-His; not shown: His tag of the bought product
T5 sequence (Q9NZQ7 other isoform, or with tags, fused parts or gaps): as the sequence (Q9NZQ7 19-238) above, with A33T, A34S, S62N, R68Q, Q82R, F173L, T185A, T192I, H215L counted along it
The description is as above.
Take B5: the Kd was 2.45 nM.

With B6, the Kd worked out at 0.89 nM.

Turning to B7, the affinity, expressed as Kd, was 0.75 nM.

Another test concerns the target T6, hCD137-mFc-Avi (human; mouse, UniProt Q07011 24-186, biotin on the Avi sequence where the biotinylated form was used).
T6 construct: also called human CD137-mFc-Avi; dimeric human CD137; not shown: mouse IgG2a Fc domain (mIgG2a Fc)
As to the kind of experiment: SPR, mAb^2 captured by anti-human Fab, antigen in flow, 1:1 Langmuir fit. Here is the method:
(§2) An anti-human Fab capture antibody was immobilised on all four flow cells of a CM5 series S chip (GE Healthcare #BR-1005-30) to an average surface density of 6000 RU following the manufacturer's recommendations (GE Healthcare, human Fab capture Kit, #28958325). […] Each mAb² was captured to approximately 150 RU by injecting a 3 μg/ml solution of mAb² diluted in HBS-EP+ buffer (GE Healthcare #BR1006-69) for 60 seconds at 30 μl/min. Then different concentrations of human, cyno or mouse CD137 antigen (unbiotinylated human, cyno or mouse CD137-mFc-Avi or human CD137-Avi-His) in HBS-EP+ buffer were flowed over the chip for 3 min at 60 μl/min and then allowed to dissociate for 10 minutes. After each antigen concentration the chip was regenerated by infecting 10 mM glycine pH 2.1 at a flow rate of 30 μl/min for 30 seconds. Buffer HBS-EP+ was injected before the highest concentration of antigen and after the lowest concentration of antigen for reference subtraction, and one of the concentrations at random was repeated twice. The binding kinetics were fit with a 1:1 Langmuir model to generate equilibrium binding constants (KD) for each sample. Data analysis was performed with BiaEvaluation software version 3.2.
In turn, B1 gave a Kd of 4.2 nM.

B3 gave a dissociation constant Kd of 5.5 nM.

Turning to B2, the Kd stood at 1.5 nM.

Consider B4, for which the Kd is 4.3 nM.

In the next test the target is T7, hCD137-Avi-His (human, UniProt Q07011 24-186).
T7 construct: also called human CD137-Avi-His; monomeric human CD137
T7 sequence (Q07011 24-186): as the sequence (Q07011 24-186) above
The description is as above. Here is the method:
as §2
As for B1, the “Human monomeric CD137 KD fold difference relative to human dimeric KD” value was determined as 170 fold.

As for B3, the “Human monomeric CD137 KD fold difference relative to human dimeric KD” value was above 200 fold.

On to B2, for which the “Human monomeric CD137 KD fold difference relative to human dimeric KD” value was above 200 fold.

Regarding B4, the “Human monomeric CD137 KD fold difference relative to human dimeric KD” value was above 200 fold.

The target of another test is T3, cCD137-mFc-Avi. Described as above. Here is the method: as §2
In turn, B1 gave a Kd of 0.9 nM.

B3 returned a Kd of 1.3 nM.

Consider B2, for which the affinity, expressed as Kd, was 1.3 nM.

B4: the Kd amounted to 3.5 nM.
